Measured values from publication PMC10661072.

Key:
[1] = target: recombinant core spidroin eADF4(C16) (Araneus diadematus (engineered mimic of its fibroin 4 core domain)); assay: turbidity at 340 nm (fibrillization kinetics), global fit with AmyloFit; 10-40 uM eADF4(C16) in 150 mM NaF, 20 C, without and with 0.5% (w/w) pre-formed seeds; secondary nucleation model, nc set to 2 and n2 to 1; monomers to fibrils
[2] = target: recombinant core spidroin eADF4(C16) (Araneus diadematus (engineered mimic of its fibroin 4 core domain)); assay: turbidity at 340 nm (fibrillization kinetics), global fit with AmyloFit; 10-40 uM eADF4(C16) in 150 mM Na2SO4, 20 C, without and with 0.5% (w/w) pre-formed seeds; secondary nucleation model, nc set to 2 and n2 to 1; monomers to fibrils

k2 (rate constant of secondary nucleation) [1]: 0.598 M⁻¹ s⁻¹ | k+ (rate constant of fibril elongation) [1]: 7.26e+07 M⁻¹ s⁻¹ | k+k2 (elongation x secondary nucleation, combined rate parameter) [1]: 3.34e+07 M^−2 s^−2 | k+kn (elongation x primary nucleation, combined rate parameter) [1]: 420000 M^−2 s^−2 | kn (rate constant of primary nucleation) [1]: 0.00585 M⁻¹ s⁻¹ | k2 (rate constant of secondary nucleation) [2]: 7.08 M⁻¹ s⁻¹ | k+ (rate constant of fibril elongation) [2]: 2.85e+07 M⁻¹ s⁻¹ | k+k2 (elongation x secondary nucleation, combined rate parameter) [2]: 9.04e+07 M^−2 s^−2 | k+kn (elongation x primary nucleation, combined rate parameter) [2]: 1.35e+06 M^−2 s^−2 | kn (rate constant of primary nucleation) [2]: 1.42 M⁻¹ s⁻¹
Substance: recombinant core spidroin eADF4(C16)
